# Results taken from the supplement of paper PMC9170038.
# Test system: K4 kissing-loop RNA reporter
# Experiment: apparent KD of K4 kissing-loop reporter; higher = weaker reporter binding
# Conditions: Eterna round: R107
# Description: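 RNA-MaP round R107: designed RNA switches with theophylline, tryptophan, arginine or FMN aptamers are transcribed on-chip within common flanks. They are titrated with a labelled K4 kissing-loop RNA reporter in RNA-MaP buffer (100 mM Tris pH 7.5, 80 mM KCl, 4 mM MgCl2), without ligand or with the indicated ligand. Median apparent KD per design.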
# [1] = input ligand: theophylline 20 uM
# [2] = input ligand: tryptophan 2.4 mM
# 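Also: bound reporter read as fluorescence of individual clusters on recovered sequencing chips by microscopy, with normalized cluster intensities fitted with a binding model.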
Sequence,apparent KD of K4 kissing-loop reporter (input ligand: FMN 200 uM) [nM],apparent KD of K4 kissing-loop reporter (input ligand: arginine 13.2 mM) [nM],apparent KD of K4 kissing-loop reporter (input ligand: none) [nM],apparent KD of K4 kissing-loop reporter [1] [nM],apparent KD of K4 kissing-loop reporter [2] [nM]
UGUAUAGUCAGAAGGAGCGUGAACGAUCGAGAAUCGAUCAGCCAGUGAUGUUGGCAGGAAUCACAGGUAGGUCGCUGACUGUACA [Arg B SS t3],237,208,258,240,208
UUGAGCCGGACUCAAGUCCGGCUCUGCGAGCGAGGACCGGUACGGCCGCCACUCGGUGCAGUGAUGUUGCAUGGCCGCAAGGCCG [#2 Exclusion - Tryptophan A Attempt #13 (HarryS)],413,133,482,404,520
CAAUGAGUAUAAGAUGAUAUCAUAACAGAAGGAGCGAGUGAUAACUCAGGUAGGUCGCUGAAUUUAUCGAGUGAUGUUCGAUAGA [whbob_SS_Arginine_A_sa117],202,162,226,193,176
GUCCAACCUGGAGGAUAUCUGCUGUCCAGUGAUGUUGGACACUUUAGUAAAGGCCGGGUAGCCCGCAGAGAAGGCCGGAGUUGCC [Arceer],310,328,375,464,327
UGAUAGGACAGAAGGAGCGGAAGCUAGUCAAAGACUAGCACGUUAAUAACAGGAGUGAUGUUCCAGGUAGGUCGCUGUCCUAUCU [ArgBX 24 #SwitchBubble #StaticStem],126,118,136,118,113
AACUGUCAAGGACAACAUUACUGAGGUGAUACCAGCAUCGAAAGAUGCCCUUGGCAGCACCAACUUGCAGUGAUGUUGCAAGUAA [Design6],212,184,212,279,214
GGUGUUGUUUGUGCUGUUUUCCUCGUUUCUCGAGGACCGGUACGGCCGCCACUCGAGUGAUGUUUGGGUAGCGAUCCUUGUUAGU [Bdazzled - #6 Exc. Tryptophan A],335,215,313,272,383
CGCAAGCAGCCAGUGAUGUUGGCCGCCUUGCGAGGACCGGUACGGCCGCCACUCGAAGGCGGCUACUGAUAAACCGUCUAACGGA [KL-XTryp-A9],112,96.3,105,95.4,274
AGUAAUGAGUGAUGUUCAAAUAGUAAGGAUACCAGUAAUUCAAAAUGCCCUUGGCAGCUUAACGCUACCAAUAGAUAAAUAAUGG [Theophilline A V2 (+2A)],134,166,144,172,96.8
UUCAGUGAUGUUGAACACUGUUGUAUAAACUAGGAUAUGCUGAUAAGCAGAAGGAGUGAUGUUCCGUUCAUCAUCAGAAUUAAAU [KL-XFMN-A3],673,400,360,424,250
ACAGUUGCUAGUGAUACCAGACUAGCACUACGUAAUAUGUCAAGUGAUGUUUGACAACUAGUCCCUUGGCAGCGCGAUACGACUG [#11 K4 Theophylline B Same State],235,289,259,269,225
GAUCUGAACGAAAGUUCGGAUCAGUCCGAUACCAGUAUGGAUUCAUACCCUUGGCAGCGGAAAUCUGCUAUGGAGUGAUGUUCCU [Theophylline A K4 13],362,280,413,396,274
CGCAGUGAUGUUGCUUAUAUUCUUGGUUAACGAGGACCGGUACGGCCGCCACUCGAUUUCUAACUAUUCCAGUGUUAAUUUGAGU [JR_ExcTryptoA_Sub006],444,488,502,564,306
GACAUACCUAUGGAGGGCCGAUCGAUCAUACGAGGACCGGUACGGCCGCCACUCGUGGGCAGUGAUGUUGACCCUGGGAGGUAAG,316,223,252,232,483
AGUGAUGUAGUGUGUUGUUUGUGAAGUGAUCGAGGACCGGUACGGCCGCCACUCGAGUGAUGAGUGAGUGAUGUUUGUUUAGUGG [#18 K4 Tryptophan A Same State],379,283,376,412,303
GGGAGAAGAGCGGCCGCCACUCAGACAGCAGCAGAAUAUAGUGAUGUUAUAUAGGAAAGGCGGAGGAGGACCGGGCUUAAGAGGG [#20 K4 Tryptophan B Same State],308,303,278,362,316
UGGAGUUGACGAAAAGUCAACUCCCGAGAAGGAGCGGACGAAAGUCCAGGUAGGUCGCUCGCUACCAGUGAUGUUGGUACUGAAA,125,180,126,160,105
AAUUAAUGUAUAGAUUAUAUACAUUAAUCAGAGGAUAUGCUUUGUUGCAGAAGGCUGAAUGCAGUGAUGUUGCAAUUUUAAUUUA [JR_SSFMNA_Sub005],50.8,99.8,54.7,87.3,46.7
CGAGUGAUGUUCGAAGAGUUGUUGAGCGAUACCAGCCAGGAAACUGGCCCUUGGCAGCGUAAUAAAUAAAUAAAUAAAUGAUCAC [whbob_Ex_Theo_A_th61],364,464,410,635,333
AAUAAGGUCGCCGAUACCAGCGCAGGCAGAGCAAAGCUCUGCCAAGUAGUGAUGUUACUGCGCCCUUGGCAGCGGUGGCACGACC [Omei KL Theo B SS C v3],196,157,163,123,167
GGUUUAUAGGAGGAUACCAGUACGGAUAAAGUACGUUAAUAGUAGAGUGAUGUUCUAAAGUACCCUUGGCAGCUUAGAUUAAGUU [ExTheophylB.J],72,142,106,110,64.4

Sequence,apparent KD of K4 kissing-loop reporter (input ligand: FMN 200 uM) [nM],apparent KD of K4 kissing-loop reporter (input ligand: arginine 13.2 mM) [nM],apparent KD of K4 kissing-loop reporter (input ligand: none) [nM],apparent KD of K4 kissing-loop reporter [1] [nM],apparent KD of K4 kissing-loop reporter [2] [nM]
AGACGCCAGUCGGCCGCCACUCACAGCAGUGAUGUUGCUGAGAAUCUAGAAGAGUGAUGUUCUUAGAGGACCGGGACUCCAGUCG [Same State Tryptophan B GF 7],354,363,383,311,306
UGAUAGGACAGAAGGAGCGGAAGCUAGUCAAAGACUAGCAAACGUUAAACAGGAGUGAUGUUCCAGGUAGGUCGCUGUCCUAUCU [ArgBX 23 #SwitchBubble #StaticStem],124,115,126,133,119
AAUAAACAGUCGGCCGCCACUUCAAUAGACUUAUUAUUGAAUGGUGUAGUUCUUCAGUGAUGUUGAAGGACCGGGACUUUCGCGC [Isesator],157,134,145,139,158
GGAGUUACCUGGGAUACCAGUCGGAGUCUCAGAGCACGGAGUGAUGUUCUGGGAUGUUUCGGCCCUUGGCAGCUCUGGGACUCCA [#2 Exclusion - Theophylline B Attempt #15 (HarryS)],317,209,268,219,228
ACCCGGGCCCGAAAGGGCCCGGGAAGAGAUACCAGCAGCGAAAGCUGCCCUUGGCAGCUCACUUAGUGAUGUUGAGAAUAGGGCG [#21 K4 Theophylline A Same State],657,221,554,299,225
UGAUAGGACAGAAGGAGCGGUAGUGAUGUUGCCAAAAGAAUAAGGUGUCAAAAGACACCCUACCAGGUAGGUCGCUGUCCUAUCU,346,368,423,429,289
ACCAUCAAAGAUGGCCAGGACUCCGCUGAUACCAGAGUGAAAACACUCCCUUGGCAGCAGGUGAGUGAUGUUCACGAGUCCUGGA [Omel KL Theo A SS B v6],986,330,476,448,836
CCAUCGCUAUUCGAUACCAGCUACUUAGUGAUGUUAAGUUUAAAUCCACUGUAGGUGGAAAGCCCUUGGCAGCGAAUAGUGAUGG [Theophylline B K4 24],315,274,306,157,245
GGGCCUGGGCCCGGAAGGGCCUGGGCCCGUUAGGAUAUGACGUGAUUCAGAAGGGAUGGGUGGAGUGAUGUUCCACCCGAGAGGG [#2 Same State - FMN A Attempt #25 (HarryS)],85.9,90.5,81.5,73.1,63.3
GGUUGAAGUACCCGGAGUGAUGUUCCGGAUACCAGCAAACCAACUUGCCCUUGGCAGCCGUAUAGCGUCCGGUGGACCGAGCAUA [Soriesreve],98.5,70.3,77.4,76.2,78.7
AUAAUAUGAGUGAUGUUCAUGUAAGCUGAAGGAGCGGACGAAAGUCCAGGUAGGUCGCAGCGUUCCUUUACCUCAUGAGAAGGAG [KL_SSArg-A1 #analogue],125,184,203,235,127
UGAUACCAGGCGGCCGCCACUCCCGCAGGUCAAAGACCUGCGAAGCUGGUUCUUCAGUGAUGUUGGAGGACCGGGCCUGGUAUCU [FiskerMod 25 - Jieux - Exclusion - Tryptophan B],253,211,236,232,494
UGUGGAGGAUAUGAUACCAGCAGUGAGAGAGAGGAAGUAUAGUGAUGUUAUAUGAGAGAAUGCCCUUGGCAGCGUAUGUAGUAGG [SSTheophylB.I],270,210,218,208,191
AAAUAAAGCAGUCACCCAGUGAUGUUGGAAGGAGCGUGCGAAAGCACAGGUAGGUCGCCGAUAAAGGACAAAGUCCGUGGCUGCA [#SwitchBubble 29 #K4Early],275,350,253,279,190
CAUACGCAUGGAGGAUAUGAGAUUACUCAUAUCAUUUAAUAUUCUCAGUGAUGUUGAGAUUUAGGCUCAGAAGGCCAUGUGUAUG [Ex FMN B 14],271,362,412,421,375
ACGUUCGGAACGGCCGCCACUAUGGGCAGUGAUGUUGCCCAUAACCGGUUUUGCGUCAGAUCCCUUAGGACCGGGUUCUGGUAUA [Soonlesoso],78.4,68.6,73.4,65.8,75.2
AGGAGUGAUGUUCCUACAUAGACGGUCCAACGAGGACCGGUACGGCCGCCACUCGCGACCCAGUGAUGUUGGGAUUCACCGUACA [Exclusion Tryptophan A Gf 14],723,753,818,836,812
GGUCCGGGCUCGGCCGCCACUCCCUCCUGCCGCAAGGUGGGAUACCGAGUGAUGUUCGGUUGGAGGAGGACCGGGAGCCCGGACC [#2 Exclusion - Tryptophan B Attempt #14 (HarryS)],115,124,121,133,118
CCUUCUCUUGAUAGUGAUGUUGUCGAGGACAAGGAUAUCAUCUCAAUGAGAAGGUGUCCUUGAUAACAUGGAGGUCUGAAACAGA [Omei KL FMN A Exc C v10],468,394,333,365,420
CAAUGAGUAUAAGAUGAUAUCAUAACAGAAGGAGCGAGUGAUAACUCAGGUAGGUCGCUGAAUUUAUCGAGUGAUGUUCGAUAAA [whbob_SS_Arginine_A_sa116],205,154,187,166,184
AUUGAUAUAUAUAUUUGAUUUUUAUGUGAUACCAGACAAGGCAUAGUCCCUUGGCAGCACUUUAUAUUUACGAGUGAUGUUCGUA [JR_SSTheophyA_Sub025],192,180,180,187,154
